The results in this text go back to patent US20220396612A1 (UNIVERSIT DE TOURS, published 2022).

The target in test [1] is T1, virus-like particles (VLPs) of BK polyomavirus VP-1 protein, serotype IV (BK virus (BKPyV), serotype IV, UniProt P14996 1-362).
T1 construct: native VLPs; also called VLP IV
T1 chain: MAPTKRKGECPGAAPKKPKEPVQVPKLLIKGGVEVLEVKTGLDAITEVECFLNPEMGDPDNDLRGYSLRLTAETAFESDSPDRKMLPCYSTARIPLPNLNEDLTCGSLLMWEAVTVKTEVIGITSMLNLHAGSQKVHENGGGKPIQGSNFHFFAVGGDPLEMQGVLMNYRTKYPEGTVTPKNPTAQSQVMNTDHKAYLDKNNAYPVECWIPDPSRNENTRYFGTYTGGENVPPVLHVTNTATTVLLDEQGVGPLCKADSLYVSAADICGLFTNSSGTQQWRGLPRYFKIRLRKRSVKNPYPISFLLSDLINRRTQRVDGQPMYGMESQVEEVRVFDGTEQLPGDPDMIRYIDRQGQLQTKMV
The test can be described thus: ELISA on coated VLP; supernatant 1/10. A general note: An ELISA detects its analyte on a solid surface through an enzyme-linked reagent.
Experimental: (§1) To do this, the VLPs produced were deposited at a concentration of 1 μg/mL in PBS and incubated overnight at +4° C. The wells were then blocked for 1 h at +37° C. with a PBS/FCS (phosphate-buffered saline/fetal calf serum) mixture. After dilution in a dilution buffer containing FCS, PBS and Tween® 20, the various hybridoma culture supernatants were added for 1 h at +37° C. The wells were washed four times in a row with Wash Buffer and a secondary anti-mouse antibody coupled to peroxidase was added to the 1:2000 dilution for 1 h at +37° C. The wells were washed four more times and the substrate (OPD (ortho phenylene diamine)+H₂O₂) was added for 30 min at room temperature. A stop solution (H₂SO₄ 4N) was then added and each well was read by measuring the absorbance at 492 nm with a spectrophotometer. The value obtained for the average of the control wells (PBS in the first step) is subtracted from the optical density values obtained for each well.

The target in test [2] is T2, virus-like particles (VLPs) of BK polyomavirus VP-1 protein, serotype II (BK virus (BKPyV), serotype II, UniProt P14996 1-362).
T2 construct: native VLPs; also called VLP II
T2 chain: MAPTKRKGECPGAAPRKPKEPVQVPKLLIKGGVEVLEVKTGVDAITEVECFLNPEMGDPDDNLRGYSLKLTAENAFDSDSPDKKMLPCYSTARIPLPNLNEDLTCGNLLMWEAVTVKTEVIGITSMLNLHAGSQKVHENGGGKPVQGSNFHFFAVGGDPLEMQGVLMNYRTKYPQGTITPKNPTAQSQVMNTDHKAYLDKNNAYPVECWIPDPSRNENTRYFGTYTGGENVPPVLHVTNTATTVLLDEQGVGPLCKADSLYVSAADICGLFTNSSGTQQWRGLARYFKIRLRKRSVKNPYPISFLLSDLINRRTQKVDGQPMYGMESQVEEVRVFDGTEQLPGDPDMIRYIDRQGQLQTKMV
Briefly: ELISA on coated VLP; supernatant 1/10.
Experimental: as §1

Test [3] concerns the target T3, virus-like particles (VLPs) of BK polyomavirus VP-1 protein, serotype Ia (BK virus (BKPyV), serotype Ia, UniProt P03088 1-361).
T3 construct: self-assembled native VLPs coated on ELISA plates; also called VLP Ia; BKV VP-1, serotype Ia
T3 chain: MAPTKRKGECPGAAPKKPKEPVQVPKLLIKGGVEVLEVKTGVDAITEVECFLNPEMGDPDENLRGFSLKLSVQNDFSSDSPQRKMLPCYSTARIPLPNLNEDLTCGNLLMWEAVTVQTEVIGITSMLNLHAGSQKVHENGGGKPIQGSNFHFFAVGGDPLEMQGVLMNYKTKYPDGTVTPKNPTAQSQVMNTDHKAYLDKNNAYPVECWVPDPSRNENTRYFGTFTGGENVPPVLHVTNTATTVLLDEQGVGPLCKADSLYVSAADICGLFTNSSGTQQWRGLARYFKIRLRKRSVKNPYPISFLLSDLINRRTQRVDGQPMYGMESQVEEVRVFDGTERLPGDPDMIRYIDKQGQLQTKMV
Briefly: ELISA on coated VLP; supernatant 1/10.
Experimental: as §1

Test [4] has as its target T4, virus-like particles (VLPs) of BK polyomavirus VP-1 protein, serotype Ib2 (BK virus (BKPyV), serotype Ib2, PA …, UniProt P03088 1-362).
T4 construct: native VLPs; also the immunogen; also called VLP Ib2; BK Ib2
T4 chain: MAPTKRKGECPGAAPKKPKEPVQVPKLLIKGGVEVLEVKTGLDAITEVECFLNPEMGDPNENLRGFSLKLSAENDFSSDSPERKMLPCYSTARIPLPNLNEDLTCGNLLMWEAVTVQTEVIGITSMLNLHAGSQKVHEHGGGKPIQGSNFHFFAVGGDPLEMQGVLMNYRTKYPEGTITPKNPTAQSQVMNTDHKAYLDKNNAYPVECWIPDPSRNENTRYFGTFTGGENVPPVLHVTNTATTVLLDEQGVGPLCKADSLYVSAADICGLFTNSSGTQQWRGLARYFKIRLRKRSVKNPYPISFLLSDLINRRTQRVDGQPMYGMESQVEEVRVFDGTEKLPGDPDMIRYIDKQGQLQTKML
The test can be described thus: ELISA on coated VLP; supernatant 1/10.
Experimental: as §1

The target in test [5] is T1, virus-like particles (VLPs) of BK …. Briefly: ELISA on coated VLP; supernatant 1/2 560.
Experimental: as §1
The target in test [6] is T3, virus-like particles (VLPs) of BK …. The test can be described thus: ELISA on coated VLP; supernatant 1/2 560.
Experimental: as §1
Test [7] concerns the target T4, virus-like particles (VLPs) of BK …. Briefly: ELISA on coated VLP; supernatant 1/2 560.
Experimental: as §1
The target of test [8] is T3, virus-like particles (VLPs) of BK …. The test can be described thus: ELISA on coated VLP; supernatant 1/5 120.
Experimental: as §1
In test [9] the target is T4, virus-like particles (VLPs) of BK …. The test can be described thus: ELISA on coated VLP; supernatant 1/5 120.
Experimental: as §1
For test [10], the target named is T1, virus-like particles (VLPs) of BK …. Briefly: ELISA on not denatured VLP (threshold OD>0.5).
Experimental: (§2) The wells were then blocked for 1 hour at +37° C. with a PBS/SVF mixture. After dilution in a dilution buffer containing SVF, PBS and Tween® 20, the individual culture supernatants or purified antibodies were added for 1 hour at +37° C. The wells were washed four times in a row with Wash Buffer and a secondary anti-mouse peroxidase antibody was added to the 1/2000 dilution for 1 hour at +37° C. The wells were washed again four times in a row and the substrate was added for 30 minutes at room temperature. A stop solution was added and then each well was read by measuring the absorbance at 492 nm with a spectrophotometer. The value obtained for the average of the control wells (PBS in the first step) was subtracted from the optical density values obtained for each well (detection threshold: OD>0.5).
Test [11] has as its target T2, virus-like particles (VLPs) of BK …. The test can be described thus: ELISA on not denatured VLP (threshold OD>0.5).
Experimental: as §2
Test [12] has as its target T3, virus-like particles (VLPs) of BK …. Briefly: ELISA on not denatured VLP (threshold OD>0.5).
Experimental: as §2
In test [13] the target is T4, virus-like particles (VLPs) of BK …. The test can be described thus: ELISA on not denatured VLP (threshold OD>0.5).
Experimental: as §2

B1: monoclonal antibody ‘H6’ secreted by clone BK6A2H6 (antibody, V domains shown)
VH: EVQLQQSGPELVKPGASVKISCKASGYSFTGYFMNWVKQSHGKSLEWIGRINPYNGDTFYNQKFKGKATLTVDKSSSTAHMELLSLTSEDSAVYYCGSYYYGDYFDYWGQGTTLTVSS
VL: SIVMTQIPKFLLVSEGDRVTITCKASQSVSNDVAWYQQKSGQSPKLLIYYASNRYTGVPDRFTGSGYGTDFTFTISTVQAEDLAVYFCQQDYSSPLTFGAGTKLELKR
As to B1, the “OD 492 nm” value in test [1] was found to be 3.29 OD; in test [2], 2.96 OD; in test [3] it was 2.99 OD; in test [4] it was 1.71 OD; in [5], 0.54 OD; in [6], 0.46 OD. For the same molecule, the “OD 492 nm” value in [7] was determined as 0.1 OD; in test [8], 0.86 OD; in [9] it was 0.09 OD.

B2: monoclonal antibody ‘F6’ secreted by clone BK6A2F6 (antibody)
heavy: EVQLQQSGPELVKPGASVKISCKASGYSFTGYFMNWVKQSHGKSLEWIGRINPYNGDTFYNQKFKGKATLTVDKSSSTAHMELLSLTSEDSAVYYCGSYYYGDYFDYWGQGTTLTVSSAKTTPPSVYPLAPGSAAQTNSMVTLGCLVKGYFPEPVTVTWNSGSLSSGVHTFPAVLQSDLYTLSSSVTVPSSTWPSETVTCNVAHPASSTKVDKKIVPRDCGCKPCICTVPEVSSVFIFPPKPKDVLTITLTPKVTCVVVDISKDDPEVQFSWFVDDVEVHTAQTQPREEQFNSTFRSVSELPIMHQDWLNGKEFKCRVNSAAFPAPIEKTISKTKGRPKAPQVYTIPPPKEQMAKDKVSLTCMITDFFPEDITVEWQWNGQPAENYKNTQPIMDTDGSYFVYSKLNVQKSNWEAGNTFTCSVLHEGLHNHHTEKSLSHSPGK
light: […]
As for B2, the “OD 492 nm” value in test [1] was determined as 3.25 OD; in [2], 3 OD; in [3], 3.08 OD; in test [4] it was 2.7 OD; in test [10] it was 0.788 OD; in test [11] it was 3 OD. For the same molecule, the “OD 492 nm” value in [12] worked out at 3.94 OD; in test [13], 2.7 OD; in test [5], 1.28 OD; in test [6] it was 1.06 OD; in test [7], 0.09 OD; in test [8], 0.57 OD. In addition, the “OD 492 nm” value in [9] was determined as 0.08 OD.

B3: monoclonal antibody ‘18A2’ derived from hybridoma 18A2 (antibody, V domains shown)
VH: DVQLQESGPGLVKPSQSLSLTCSVTGYSITSGYYWNWIRQFPGNKLEWMGYISYDGSNNYNPSLKNRISITRDTSKNQFFLKLNSVTTEDTATYYCARWEGTTDYWGQGTTLTVSS
VL: not shown
notes: Mouse hybridoma antibody
On to B3, for which the “OD 492 nm” value in test [10] came to 2.99 OD; in test [11], 1.71 OD; in [12], 3.84 OD; in [13], 0.565 OD.
